The text below walks through data of publication PMC6631030, “Unraveling Sugar Binding Modes to DC-SIGN by Employing Fluorinated Carbohydrates” (Molecules, 2019).

The data set deals with the molecule itself. Put plainly: negative-stain TEM; purified refolded DC-SIGN ECD, negative staining, Jeol JEM-1230.

B1: dendritic cell-specific intercellular adhesion molecule 3-grabbing non-integrin (DC-SIGN) full extracellular domain, tetramer (domain or fragment, UniProt Q9NNX6 70-404, looked up)
chain: EQSRQDAIYQNLTQLKAAVGELSEKSKLQEIYQELTQLKAAVGELPEKSKLQEIYQELTRLKAAVGELPEKSKLQEIYQELTWLKAAVGELPEKSKMQEIYQELTRLKAAVGELPEKSKQQEIYQELTRLKAAVGELPEKSKQQEIYQELTRLKAAVGELPEKSKQQEIYQELTQLKAAVERLCHPCPWEWTFFQGNCYFMSNSQRNWHDSITACKEVGAQLVVIKSAEEQNFLQLQSSRSNRFTWMGLSDLNQEGTWQWVDGSPLLPSFKQYWNRGEPNNVGEEDCAEFSGNGWNDDKCNLAKFWICKKSAASCSRDEEQFLSPAPATPNPPPA
notes: DC-SIGN, full extracellular domain (ECD), residues 70-404; the fragment was inserted in pET15b via NdeI and BamHI, and the protein was purified on mannose-Sepharose, not by a tag; The results call it 'tetrameric full-length DC-SIGN', the methods give the ECD 70-404; also called DC-SIGN tetramer; tetrameric DC-SIGN
Turning to B1, the “stoichiometry N” value is 4.

What is called stoichiometry N is a count of units in the complex or per binding partner.
